Reference: the supplement of paper PMC9170038

test system: K4 kissing-loop RNA reporter; test: apparent KD of K4 kissing-loop reporter; higher = weaker reporter binding; details: Eterna round: R107; input ligand: tryptophan 2.4 mM
Procedure: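 RNA-MaP round R107: designed RNA switches with theophylline, tryptophan, arginine or FMN aptamers are transcribed on-chip within common flanks. They are titrated with a labelled K4 kissing-loop RNA reporter in RNA-MaP buffer (100 mM Tris pH 7.5, 80 mM KCl, 4 mM MgCl2), without ligand or with the indicated ligand. Median apparent KD per design.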
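Further: bound reporter read as fluorescence of individual clusters on recovered sequencing chips by microscopy, with normalized cluster intensities fitted with a binding model.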

Sequence | apparent KD of K4 kissing-loop reporter
GGAUAGGAUAGAGGAUAUGGGCUAGGCAAGAAUAACUUGUCUAGUAAAUCCAUGAGGAGUGAUGUUCCAGAAGGCUGUCCUAUCG [MatMod 2 - Jieux - Exclusion - FMN B] | 247 nM
CUACGACAGGAAGGAUAUCGUGUGGAGAGCAGUUAUUUAAAGGUAGUGAUGUUACAGGAGACUGUUCGAGAAGGUCCUCAGUUAC [theeternabot_exclusion_KL_FMN_B_32] | 103 nM
UGACAUUGCUCAGAUACCAGACUUGAGGAACACCCAAGUGCCAAAACGUACUAAAUAAAAGUCCCUUGGCAGCUGAGCAAUGUCU [TheoBX 13] | 59.4 nM
CGAGAGGUCUUGUUUGGAUGUGUUUUAUGGCGAGGACCGGUACGGCCGCCACUCGGGUGAUGUUAGUGAUGUUGAUGUAGUGAUG [dcdmullin] | 76.9 nM
AAAUAAAGCAGUCACCCAGUGAUGUUGGAAGGAGCGUGCGAAAGCACAGGUAGGUCGCCAAAAUAAAAGUGGCUGCGGCAAAGCC [#SwitchBubble 24 #K4Early] | 222 nM
CUUGUACAAGUGAUGUUUGUUAUAUCCGAAGGAGCGUCGUAAUAGACAGGUAGGUCGCGGAGUUAGCUGGUUUUUUUAACAGCUA [JR_Nu_SSArginiA_Sub030] | 584 nM
AUGCGUUGCACGGCCGCCACUGAUAUUAUGCUUCAGGAUGCUUCUGAAAGUGAUGUUUUCAGAUCCAGGACCGGGUGCCAAGAUU [theeternabot_sameState_KL_Trp_B_17] | 98.8 nM
GAAUUUGCCGAUCAAAGUGAUGUUUUGGAUACCAGCCAUCAAGCUGGCCCUUGGCAGCCAACGUCGGCUGGCGACCGUGCGGACU [theeternabot_exclusion_KL_Theo_A_50] | 285 nM
AAUACACUGUCGGCCGCCACUCUCGGCUGCAGUGUGCAGGGACAUGAGUGAUGUUUAUGUCGCGUGAGGACCGGGACUGAUGUAU [KL-SSTryp-B1 #analogue] | 209 nM
UUUAACGAGUGAUGUUCGAAGAGUAAGGGUGAGGAUAUCGAUUUUUCGAGAAGGCGCCUCGAAGUGAUACGAAAGUAUCGCUUCG [FMN A 7] | 215 nM
UGCAUGCUAGUAGUGAUGUUACAUGAUGAUACCAGUGCUUUUUUGCACCCUUGGCAGCGUCAUUUUGCAUGCACGUCGAAAGACG | 474 nM
GCAACAUUGGAAGGAUAUCAUUCUGAGUGAUGUUCAGGGUUCAGCUAACGAAAGUUAGUUGUACCAUGAGAAGGUCUAAUGUUGC [Omei KL FMN B SS A v4] | 1010 nM
UUCAGGUGUUCGGCCGCCACUCCAGUGAUGUUGGAGUGGCUUCACAAGGGCCAGGACAAUGUAAGGAGGACCGGGAAUAUCUCAG [Onisle] | 111 nM
UGCAGUGAUGUUGCUAUUUGUCUUGAUAAACGAGGACCGGUACGGCCGCCACUCGAUUUCUCUCUUAUCGGGUAUGUUGUUUAGU [#21 K4 Tryptophan A Exclusion] | 113 nM
AGAGUCGGCUGUGAUACCAGUCGUAUAACAACAUGUCGCAGUGAUGUUGCGAGAUAGGAUGACCCUUGGCAGCACUCAGUACGAU [Same State Theophylline B GF 7] | 426 nM
UGAUAGGACAGAAGGAGCGGUAGUGAUGUUGCCAAAAGGAUAAGGUGUCAAAAGACACCCUACCAGGUAGGUCGCUGUCCUAUCU | 152 nM
UUUAUAUAGUCGGCCGCCACUGAUUUUUAUAUAUGUUUAUGUUUAUACGAGUGAUGUUCGAUAUACAGGACCGGGACUUUUGUUA [JR_SSTryptoB_Sub017] | 207 nM
GCGUCGCAGGUCGCAGUACCAUCGCGGGAUACCAGCCCUGCUACCGGCCCUUGGCAGCCCGGUUAUCGGUUAGUGAUGUUAGCCA [theeternabot_sameState_KL_Theo_A_44] | 591 nM
GUAUGUGGAAACACGUACUUGUAUCCUAAGCAGGAUAUGCGGAAACGCAGAAGGGCUACCAACGAGUUUAUCCAGUGAUGUUGGA [Ex FMN A 13] | 455 nM
GUUACGCAUGGAAGGAGCGCAUGCUCAGCUAUAAGCUCAGUGAUGUUGAGCAUUUUUUUUUUGCAGGUAGGUCGCCAUGUGUAAC [Ex Arginine B K4 30] | 170 nM
UGGACCUGACUCGAUACGAGUCAAUGAGAUACCAGCCACGAAAGUGGCCCUUGGCAGCUCUGCCAGUGAUGUUGGUCAAGGUCCU [#SwitchBubble 9 #StaticStem] | 1360 nM
AAAUAGGAGUAAAUAAACAAUUUCCUUAGAGAGGAUAUUGGUAAUACAAGAAGGCUCUGUUGGGAGUGAUGUUCCCAUAACGCCU [Exclusion FMN A GF13] | 56.7 nM
ACAGAGUGAUGUUUUGUAAAGAUCUUUGAUACCAGCGCCAGAAAUCGCCCUUGGCAGCAAGCCGUACAUACGUUGAUUGAUCCAC [theeternabot_exclusion_KL_Theo_A_14] | 577 nM
ACGCGCGCGAGUGAUGUUCGGAGCGGCUGGCAGGAUAUGUAGCAAUGCAGAAGGGUCGUGGCGGCGCGGCCGUAAGGCGGCGCCG [#2 Exclusion - FMN A Attempt #14 (HarryS)] | 237 nM
GGACGAGUGAUGUUCGUUAUUAUGCAUUCAGAGGAUAUAGGAUUAGCUAGAAGGCUGAAUCAAUCUUCGAGUGAUGUUCGAGGAU [Same State FMN A GF 10] | 142 nM
UGAUAAUGCAGUGAUGUUGCUAGAAACGAUACCAGUUAAGAAAAGAACCCUUGGCAGCGUAAAGUGCGCUCUAAUGAGUGUGCUU [#10 K4 Theophylline A Same State] | 132 nM
GCAUCCGAUGCAGGAUAUAGAUGAACGAGUGAUGUUUGGAAUUUAUGUCCAAAGCCUACGAUCAGACUAGAAGGGCAUCGGAUGC | 164 nM
